The results in this text go back to PMC11629141.

Experiment [1] concerns the target FcγRIIB on Raji cells (human (endogenous in Raji)) (UniProt P31994). Description: flow cytometry on cells; 250.000 Raji cells (FcγRIIB+, CD20+) with 6G11 or light chain constructs 1000-0.005 nM (1:5 dilutions), 30 min RT in PBS-B; anti-human Fc PE secondary antibody.
The target in experiment [2] is S2N‐6G11 (S2N scFv fused to the N‐terminus of the 6G11 light chain via an MMP‐9 cleavable linker), prior to MMP‐9 digestion (human | chicken). In words: BLI; 6G11 or light chain construct (5 µg/mL) loaded on Protein A biosensors; FcγRIIB 125 to 15.6 nM in 1:2 dilutions, 60 s association, 40 s dissociation in kinetics buffer.
Experiment [3] deals with S2B‐6G11 post MMP‐9 digestion and partial removal of the scFv on a 6G11‐based affinity column (human). The description is as above.
The target of experiment [4] is 6G11 (BI‐1206), full‐length antibody containing the PGLALA Fc mutations (human). Described as above.
Sequence of 6G11 (BI‐1206), full‐length antibody containing the PGLALA Fc mutations (human) (heavy, as listed by the source, chain 1 of 2): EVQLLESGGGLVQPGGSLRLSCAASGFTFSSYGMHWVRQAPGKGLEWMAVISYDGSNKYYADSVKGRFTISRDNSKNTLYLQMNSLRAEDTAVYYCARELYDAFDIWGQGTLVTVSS
Sequence of 6G11 (BI‐1206), full‐length antibody containing the PGLALA Fc mutations (human) (light, as listed by the source, chain 2 of 2): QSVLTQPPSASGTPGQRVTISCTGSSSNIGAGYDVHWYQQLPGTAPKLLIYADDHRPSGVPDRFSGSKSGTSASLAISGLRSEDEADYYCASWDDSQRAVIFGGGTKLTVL

Sequence of S2N‐6G11 (S2N scFv fused to the N‐terminus of the 6G11 light chain via an MMP‐9 cleavable linker), prior to MMP‐9 digestion (human | chicken) (heavy, as listed by the source, chain 1 of 4): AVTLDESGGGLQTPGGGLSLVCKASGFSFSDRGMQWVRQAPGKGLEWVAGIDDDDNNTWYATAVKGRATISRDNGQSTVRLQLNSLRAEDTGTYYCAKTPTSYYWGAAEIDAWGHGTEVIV
Sequence of S2N‐6G11 (S2N scFv fused to the N‐terminus of the 6G11 light chain via an MMP‐9 cleavable linker), prior to MMP‐9 digestion (human | chicken) (heavy, as listed by the source, chain 2 of 4): as the sequence (heavy, as listed by the source, chain 1 of 2) above
Sequence of S2N‐6G11 (S2N scFv fused to the N‐terminus of the 6G11 light chain via an MMP‐9 cleavable linker), prior to MMP‐9 digestion (human | chicken) (light, as listed by the source, chain 3 of 4): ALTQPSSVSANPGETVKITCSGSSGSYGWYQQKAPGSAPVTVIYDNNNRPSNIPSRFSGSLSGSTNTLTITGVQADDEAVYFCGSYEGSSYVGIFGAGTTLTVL
Sequence of S2N‐6G11 (S2N scFv fused to the N‐terminus of the 6G11 light chain via an MMP‐9 cleavable linker), prior to MMP‐9 digestion (human | chicken) (light, as listed by the source, chain 4 of 4): as the sequence (light, as listed by the source, chain 2 of 2) above
Sequence of S2B‐6G11 post MMP‐9 digestion and partial removal of the scFv on a 6G11‐based affinity column (human) (heavy, as listed by the source, chain 1 of 2): as the sequence (heavy, as listed by the source, chain 1 of 2) above
Sequence of S2B‐6G11 post MMP‐9 digestion and partial removal of the scFv on a 6G11‐based affinity column (human) (light, as listed by the source, chain 2 of 2): as the sequence (light, as listed by the source, chain 2 of 2) above

As to “6G11 (BI‐1206), full‐length antibody containing the PGLALA Fc mutations”, in experiment [1], the EC50 came to 0.4 nM.
In the case of “His‐tagged human FcγRIIB extracellular domain protein (from UniProt P31994 43-217) (domain or fragment)”, the Kd in experiment [2] amounted to 8.3 nM; in experiment [3], 5.9 nM; in experiment [4], 32.1 nM.
